T1: FcγRIIa R (extracellular domain, His tag at the C terminus) (human, UniProt P12318 34-217)
T1 construct: extracellular domain; Soluble analyte in Biacore; also called FcgRIIa R type; 2aR
T1 sequence (looked up): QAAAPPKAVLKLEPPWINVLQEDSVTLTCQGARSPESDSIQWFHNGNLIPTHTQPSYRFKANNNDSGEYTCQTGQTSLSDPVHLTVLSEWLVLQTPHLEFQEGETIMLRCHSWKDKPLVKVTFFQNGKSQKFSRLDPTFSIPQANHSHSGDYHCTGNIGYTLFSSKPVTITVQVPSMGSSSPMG

B1: GpH7-A5/GpH7-B3 variant T335_15Y/GpL16-k0 (antibody, human IgG1, kappa)
heavy 1: not shown
heavy 2: not shown
light: DIVMTQSPLSLPVTPGEPASISCQASESLVHSNRNTYLHWYLQKPGQSPQLLIYKVSNRFSGVPDRFSGSGSGTDFTLKISRVEAEDVGVYYCSQNTHVPPTFGQGTKVEIERTVAAPSVFIFPPSDEQLKSGTASVVCLLNNFYPREAKVQWKVDNALQSGNSQESVTEQDSKDSTYSLSSTLTLSKADYEKHKVYACEVTHQGLSSPVTKSFNRGEC
notes: heterodimerized; also called He Ab
B2: GpH7-A5/GpH7-B3 variant G236_10E/GpL16-k0 (antibody, human IgG1, kappa)
heavy 1: not shown
heavy 2: not shown
light: B1 light
notes: as for B1
B3: GpH7-A5/GpH7-B3 variant H268_13S/GpL16-k0 (antibody, human IgG1, kappa)
heavy 1: not shown
heavy 2: not shown
light: B1 light
notes: as for B1
B4: GpH7-A5/GpH7-B3 variant K326_09D/GpL16-k0 (antibody, human IgG1, kappa)
heavy 1: not shown
heavy 2: not shown
light: B1 light
notes: as for B1
B5: GpH7-A5/GpH7-B3 variant I332_04F/GpL16-k0 (antibody, human IgG1, kappa)
heavy 1: not shown
heavy 2: not shown
light: B1 light
notes: as for B1
B6: GpH7-A5/GpH7-B3 variant I332_15Y/GpL16-k0 (antibody, human IgG1, kappa)
heavy 1: not shown
heavy 2: not shown
light: B1 light
notes: as for B1
B7: GpH7-A5/GpH7-B3 variant H268_10E/GpL16-k0 (antibody, human IgG1, kappa)
heavy 1: not shown
heavy 2: not shown
light: B1 light
notes: as for B1
B8: GpH7-A5/GpH7-B3 variant I332_10E/GpL16-k0 (antibody, human IgG1, kappa)
heavy 1: not shown
heavy 2: not shown
light: B1 light
notes: as for B1
B9: GpH7-A5/GpH7-B3 variant H268_09D/GpL16-k0 (antibody, human IgG1, kappa)
heavy 1: not shown
heavy 2: not shown
light: B1 light
notes: as for B1
B10: GpH7-A5/GpH7-B3 variant I332_09D/GpL16-k0 (antibody, human IgG1, kappa)
heavy 1: not shown
heavy 2: not shown
light: B1 light
notes: as for B1
B11: GpH7-A5/GpH7-B3 variant G236_09D/GpL16-k0 (antibody, human IgG1, kappa)
heavy 1: not shown
heavy 2: not shown
light: B1 light
notes: as for B1
B12: GpH7-A5/GpH7-B3 variant K326_06M/GpL16-k0 (antibody, human IgG1, kappa)
heavy 1: not shown
heavy 2: not shown
light: B1 light
notes: as for B1
B13: GpH7-A5/GpH7-B3 variant H268_18N/GpL16-k0 (antibody, human IgG1, kappa)
heavy 1: not shown
heavy 2: not shown
light: B1 light
notes: as for B1
B14: GpH7-B3 variant H268_13S/GpL16-k0 (antibody, human IgG1, kappa)
heavy: not shown
light: B1 light
notes: homodimerized; also called Ho Ab
B15: GpH7-B3 variant K334_15Y/GpL16-k0 (antibody, human IgG1, kappa)
heavy: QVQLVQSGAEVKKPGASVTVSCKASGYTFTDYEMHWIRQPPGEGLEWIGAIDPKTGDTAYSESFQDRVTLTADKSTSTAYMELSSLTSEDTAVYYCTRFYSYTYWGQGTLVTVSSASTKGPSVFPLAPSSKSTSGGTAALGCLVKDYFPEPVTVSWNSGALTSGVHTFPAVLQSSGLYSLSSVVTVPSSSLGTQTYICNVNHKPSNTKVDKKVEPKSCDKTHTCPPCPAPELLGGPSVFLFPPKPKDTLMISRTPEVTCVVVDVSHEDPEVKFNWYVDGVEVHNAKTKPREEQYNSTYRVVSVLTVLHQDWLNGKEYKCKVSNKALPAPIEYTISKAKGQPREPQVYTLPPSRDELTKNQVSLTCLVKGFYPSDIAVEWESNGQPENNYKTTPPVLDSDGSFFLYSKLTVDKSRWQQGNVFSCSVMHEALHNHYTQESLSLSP
light: B1 light
notes: as for B14
B16: GpH7-B3 variant I332_09D/GpL16-k0 (antibody, human IgG1, kappa)
heavy: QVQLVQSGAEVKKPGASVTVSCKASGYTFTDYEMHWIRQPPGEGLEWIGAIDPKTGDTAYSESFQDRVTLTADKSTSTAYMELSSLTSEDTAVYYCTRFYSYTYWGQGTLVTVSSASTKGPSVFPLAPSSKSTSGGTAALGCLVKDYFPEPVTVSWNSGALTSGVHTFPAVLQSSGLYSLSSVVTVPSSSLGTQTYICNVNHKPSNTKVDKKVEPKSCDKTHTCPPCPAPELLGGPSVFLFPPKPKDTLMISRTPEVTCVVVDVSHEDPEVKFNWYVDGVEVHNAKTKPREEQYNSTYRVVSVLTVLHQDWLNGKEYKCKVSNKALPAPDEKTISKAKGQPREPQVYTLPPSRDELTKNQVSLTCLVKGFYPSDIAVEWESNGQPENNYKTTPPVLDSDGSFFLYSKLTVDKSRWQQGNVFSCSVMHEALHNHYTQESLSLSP
light: B1 light
notes: as for B14
B17: GpH7-B3 variant S337_14T/GpL16-k0 (antibody, human IgG1, kappa)
heavy: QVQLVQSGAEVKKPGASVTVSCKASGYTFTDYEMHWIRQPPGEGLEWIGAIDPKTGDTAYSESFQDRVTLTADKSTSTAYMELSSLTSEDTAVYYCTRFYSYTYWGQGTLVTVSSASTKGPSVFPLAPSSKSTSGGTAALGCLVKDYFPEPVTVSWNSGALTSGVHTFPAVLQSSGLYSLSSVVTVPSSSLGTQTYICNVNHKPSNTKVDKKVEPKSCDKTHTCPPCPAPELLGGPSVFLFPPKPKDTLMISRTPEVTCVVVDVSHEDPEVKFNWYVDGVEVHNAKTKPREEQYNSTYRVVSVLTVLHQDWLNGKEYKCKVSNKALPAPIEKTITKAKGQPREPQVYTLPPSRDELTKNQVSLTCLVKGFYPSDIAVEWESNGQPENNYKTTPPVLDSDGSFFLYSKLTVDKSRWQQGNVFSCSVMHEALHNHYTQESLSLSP
light: B1 light
notes: as for B14
B18: GpH7-B3 variant T335_09D/GpL16-k0 (antibody, human IgG1, kappa)
heavy: not shown
light: B1 light
notes: as for B14
B19: GpH7-B3 variant T335_20W/GpL16-k0 (antibody, human IgG1, kappa)
heavy: not shown
light: B1 light
notes: as for B14
B20: GpH7-B3 variant Y300_04F/GpL16-k0 (antibody, human IgG1, kappa)
heavy: not shown
light: B1 light
notes: as for B14
B21: GpH7-B3 variant K334_07I/GpL16-k0 (antibody, human IgG1, kappa)
heavy: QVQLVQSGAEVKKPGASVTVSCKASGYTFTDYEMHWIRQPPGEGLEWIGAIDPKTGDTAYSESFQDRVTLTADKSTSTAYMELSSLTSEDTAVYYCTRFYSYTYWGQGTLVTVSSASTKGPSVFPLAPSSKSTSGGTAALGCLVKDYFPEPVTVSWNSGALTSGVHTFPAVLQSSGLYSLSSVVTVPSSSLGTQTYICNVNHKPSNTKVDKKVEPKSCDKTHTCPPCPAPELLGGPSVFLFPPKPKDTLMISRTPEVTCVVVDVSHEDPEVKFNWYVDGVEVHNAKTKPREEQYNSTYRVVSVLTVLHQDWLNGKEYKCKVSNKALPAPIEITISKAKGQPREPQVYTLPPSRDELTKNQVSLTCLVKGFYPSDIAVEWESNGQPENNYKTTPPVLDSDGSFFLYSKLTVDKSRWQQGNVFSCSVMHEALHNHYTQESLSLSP
light: B1 light
notes: as for B14
B22: GpH7-B3 variant L328_15Y/GpL16-k0 (antibody, human IgG1, kappa)
heavy: not shown
light: B1 light
notes: as for B14
B23: GpH7-B3 variant T335_19Q/GpL16-k0 (antibody, human IgG1, kappa)
heavy: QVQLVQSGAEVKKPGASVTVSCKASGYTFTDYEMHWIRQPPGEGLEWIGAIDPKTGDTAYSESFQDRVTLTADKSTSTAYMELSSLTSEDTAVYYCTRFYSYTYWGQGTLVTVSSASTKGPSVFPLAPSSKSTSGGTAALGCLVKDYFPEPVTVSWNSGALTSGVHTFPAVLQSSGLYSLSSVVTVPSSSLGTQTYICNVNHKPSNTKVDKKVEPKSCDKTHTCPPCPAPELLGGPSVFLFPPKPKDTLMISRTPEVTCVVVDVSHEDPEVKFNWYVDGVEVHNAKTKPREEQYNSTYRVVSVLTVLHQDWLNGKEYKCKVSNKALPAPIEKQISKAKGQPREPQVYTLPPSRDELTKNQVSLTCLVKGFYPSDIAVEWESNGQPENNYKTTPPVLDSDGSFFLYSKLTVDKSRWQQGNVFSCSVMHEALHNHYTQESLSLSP
light: B1 light
notes: as for B14
B24: GpH7-B3 variant S267_02A/GpL16-k0 (antibody, human IgG1, kappa)
heavy: not shown
light: B1 light
notes: as for B14
B25: GpH7-B3 variant I332_15Y/GpL16-k0 (antibody, human IgG1, kappa)
heavy: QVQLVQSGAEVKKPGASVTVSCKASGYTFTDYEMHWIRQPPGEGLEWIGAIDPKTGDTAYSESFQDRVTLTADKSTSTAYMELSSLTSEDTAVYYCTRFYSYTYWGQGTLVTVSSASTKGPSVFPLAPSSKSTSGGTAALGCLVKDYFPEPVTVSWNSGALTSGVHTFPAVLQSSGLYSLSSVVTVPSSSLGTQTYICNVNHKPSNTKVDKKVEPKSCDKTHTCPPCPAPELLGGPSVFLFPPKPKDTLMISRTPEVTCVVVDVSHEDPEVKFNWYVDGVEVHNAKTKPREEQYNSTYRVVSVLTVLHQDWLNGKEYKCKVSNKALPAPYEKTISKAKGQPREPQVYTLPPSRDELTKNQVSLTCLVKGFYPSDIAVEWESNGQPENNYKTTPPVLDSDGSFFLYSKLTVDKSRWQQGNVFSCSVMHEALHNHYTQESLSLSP
light: B1 light
notes: as for B14
B26: GpH7-B3 variant K326_16H/GpL16-k0 (antibody, human IgG1, kappa)
heavy: not shown
light: B1 light
notes: as for B14
B27: GpH7-B3 variant K326_19Q/GpL16-k0 (antibody, human IgG1, kappa)
heavy: not shown
light: B1 light
notes: as for B14
B28: GpH7-B3 variant P271_01G/GpL16-k0 (antibody, human IgG1, kappa)
heavy: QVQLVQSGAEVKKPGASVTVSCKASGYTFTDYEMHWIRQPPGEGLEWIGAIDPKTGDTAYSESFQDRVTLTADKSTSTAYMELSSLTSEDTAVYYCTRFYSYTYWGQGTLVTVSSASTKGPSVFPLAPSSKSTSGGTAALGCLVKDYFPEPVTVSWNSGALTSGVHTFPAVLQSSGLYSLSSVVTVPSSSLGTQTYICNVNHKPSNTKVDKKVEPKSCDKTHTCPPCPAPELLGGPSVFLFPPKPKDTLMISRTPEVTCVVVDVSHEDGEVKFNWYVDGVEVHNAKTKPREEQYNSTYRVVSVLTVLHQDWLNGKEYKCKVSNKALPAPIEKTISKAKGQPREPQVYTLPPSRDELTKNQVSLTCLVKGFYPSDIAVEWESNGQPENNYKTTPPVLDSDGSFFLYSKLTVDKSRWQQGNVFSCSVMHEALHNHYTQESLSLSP
light: B1 light
notes: as for B14
B29: GpH7-B3 variant T335_08L/GpL16-k0 (antibody, human IgG1, kappa)
heavy: not shown
light: B1 light
notes: as for B14
B30: GpH7-B3 variant Y296_20W/GpL16-k0 (antibody, human IgG1, kappa)
heavy: not shown
light: B1 light
notes: as for B14
B31: GpH7-B3 variant L328_03V/GpL16-k0 (antibody, human IgG1, kappa)
heavy: not shown
light: B1 light
notes: as for B14
B32: GpH7-B3 variant H268_18N/GpL16-k0 (antibody, human IgG1, kappa)
heavy: not shown
light: B1 light
notes: as for B14
B33: GpH7-B3 variant K334_14T/GpL16-k0 (antibody, human IgG1, kappa)
heavy: not shown
light: B1 light
notes: as for B14
B34: GpH7-B3 variant T335_16H/GpL16-k0 (antibody, human IgG1, kappa)
heavy: not shown
light: B1 light
notes: as for B14
B35: GpH7-B3 variant T335_04F/GpL16-k0 (antibody, human IgG1, kappa)
heavy: not shown
light: B1 light
notes: as for B14
B36: GpH7-B3 variant V266_06M/GpL16-k0 (antibody, human IgG1, kappa)
heavy: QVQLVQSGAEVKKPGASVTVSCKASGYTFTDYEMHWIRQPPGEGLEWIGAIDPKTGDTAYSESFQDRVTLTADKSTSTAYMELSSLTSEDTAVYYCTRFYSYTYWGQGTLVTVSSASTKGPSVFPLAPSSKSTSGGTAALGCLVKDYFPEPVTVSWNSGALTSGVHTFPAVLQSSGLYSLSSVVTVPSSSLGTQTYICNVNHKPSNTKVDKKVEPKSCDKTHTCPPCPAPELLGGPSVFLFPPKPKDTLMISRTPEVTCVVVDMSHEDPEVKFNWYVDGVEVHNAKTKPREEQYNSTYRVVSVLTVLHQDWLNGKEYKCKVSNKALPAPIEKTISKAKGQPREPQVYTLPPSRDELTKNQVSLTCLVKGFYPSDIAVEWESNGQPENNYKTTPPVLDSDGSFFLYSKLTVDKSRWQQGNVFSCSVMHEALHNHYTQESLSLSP
light: B1 light
notes: as for B14
B37: GpH7-B3 variant L328_07I/GpL16-k0 (antibody, human IgG1, kappa)
heavy: not shown
light: B1 light
notes: as for B14
B38: GpH7-B3 variant L328_06M/GpL16-k0 (antibody, human IgG1, kappa)
heavy: not shown
light: B1 light
notes: as for B14
B39: GpH7-B3 variant K334_03V/GpL16-k0 (antibody, human IgG1, kappa)
heavy: not shown
light: B1 light
notes: as for B14
B40: GpH7-B3 variant K326_10E/GpL16-k0 (antibody, human IgG1, kappa)
heavy: not shown
light: B1 light
notes: as for B14
B41: GpH7-B3 variant K334_18N/GpL16-k0 (antibody, human IgG1, kappa)
heavy: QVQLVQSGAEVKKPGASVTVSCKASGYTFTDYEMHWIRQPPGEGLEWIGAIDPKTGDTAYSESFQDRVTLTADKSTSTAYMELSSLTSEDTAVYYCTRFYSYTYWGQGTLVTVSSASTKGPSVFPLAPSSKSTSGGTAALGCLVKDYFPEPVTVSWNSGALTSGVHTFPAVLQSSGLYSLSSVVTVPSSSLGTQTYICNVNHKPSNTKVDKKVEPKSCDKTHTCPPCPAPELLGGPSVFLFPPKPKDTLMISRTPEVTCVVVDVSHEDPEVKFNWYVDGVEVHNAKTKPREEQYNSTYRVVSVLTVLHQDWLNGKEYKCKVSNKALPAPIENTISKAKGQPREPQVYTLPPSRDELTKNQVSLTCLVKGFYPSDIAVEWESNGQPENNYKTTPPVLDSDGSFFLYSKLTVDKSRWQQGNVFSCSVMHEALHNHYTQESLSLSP
light: B1 light
notes: as for B14
B42: GpH7-B3 variant S239_09D/GpL16-k0 (antibody, human IgG1, kappa)
heavy: not shown
light: B1 light
notes: as for B14
B43: GpH7-B3 variant P238_08L/GpL16-k0 (antibody, human IgG1, kappa)
heavy: not shown
light: B1 light
notes: as for B14
B44: GpH7-B3 variant S267_07I/GpL16-k0 (antibody, human IgG1, kappa)
heavy: not shown
light: B1 light
notes: as for B14
B45: GpH7-B3 variant T335_06M/GpL16-k0 (antibody, human IgG1, kappa)
heavy: not shown
light: B1 light
notes: as for B14
B46: GpH7-B3 variant I332_04F/GpL16-k0 (antibody, human IgG1, kappa)
heavy: not shown
light: B1 light
notes: as for B14
B47: GpH7-B3 variant K326_09D/GpL16-k0 (antibody, human IgG1, kappa)
heavy: not shown
light: B1 light
notes: as for B14
B48: GpH7-B3 variant T335_18N/GpL16-k0 (antibody, human IgG1, kappa)
heavy: not shown
light: B1 light
notes: as for B14
B49: GpH7-B3 variant K326_06M/GpL16-k0 (antibody, human IgG1, kappa)
heavy: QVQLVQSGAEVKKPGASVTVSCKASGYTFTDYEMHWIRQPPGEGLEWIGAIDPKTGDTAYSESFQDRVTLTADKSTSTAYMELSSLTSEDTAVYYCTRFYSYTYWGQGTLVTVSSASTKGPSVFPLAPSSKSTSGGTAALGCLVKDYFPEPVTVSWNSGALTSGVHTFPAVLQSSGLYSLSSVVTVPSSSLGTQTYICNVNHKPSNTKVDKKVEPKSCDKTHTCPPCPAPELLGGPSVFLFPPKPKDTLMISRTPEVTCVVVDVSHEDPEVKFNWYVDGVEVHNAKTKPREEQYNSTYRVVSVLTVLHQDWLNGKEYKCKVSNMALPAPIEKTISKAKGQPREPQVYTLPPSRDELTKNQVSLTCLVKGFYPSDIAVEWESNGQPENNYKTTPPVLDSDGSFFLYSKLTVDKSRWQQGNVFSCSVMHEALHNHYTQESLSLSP
light: B1 light
notes: as for B14
B50: GpH7-B3 variant S239_01G/GpL16-k0 (antibody, human IgG1, kappa)
heavy: not shown
light: B1 light
notes: as for B14
B51: GpH7-B3 variant K326_14T/GpL16-k0 (antibody, human IgG1, kappa)
heavy: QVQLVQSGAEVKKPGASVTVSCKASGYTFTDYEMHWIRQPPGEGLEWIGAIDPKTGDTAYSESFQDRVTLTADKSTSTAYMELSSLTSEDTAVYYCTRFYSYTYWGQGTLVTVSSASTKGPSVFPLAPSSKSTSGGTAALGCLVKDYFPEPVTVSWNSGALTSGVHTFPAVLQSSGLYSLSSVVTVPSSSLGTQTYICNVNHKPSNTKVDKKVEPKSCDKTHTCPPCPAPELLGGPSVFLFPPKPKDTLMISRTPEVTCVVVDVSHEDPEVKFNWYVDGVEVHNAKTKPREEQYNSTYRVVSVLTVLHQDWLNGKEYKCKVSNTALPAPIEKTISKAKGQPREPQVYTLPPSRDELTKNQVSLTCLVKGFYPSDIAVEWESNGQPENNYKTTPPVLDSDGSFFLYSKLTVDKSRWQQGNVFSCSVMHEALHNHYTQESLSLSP
light: B1 light
notes: as for B14
B52: GpH7-B3 variant K334_16H/GpL16-k0 (antibody, human IgG1, kappa)
heavy: not shown
light: B1 light
notes: as for B14
B53: GpH7-B3 variant S267_01G/GpL16-k0 (antibody, human IgG1, kappa)
heavy: not shown
light: B1 light
notes: as for B14
B54: GpH7-B3 variant L328_04F/GpL16-k0 (antibody, human IgG1, kappa)
heavy: not shown
light: B1 light
notes: as for B14
B55: GpH7-B3 variant I332_10E/GpL16-k0 (antibody, human IgG1, kappa)
heavy: not shown
light: B1 light
notes: as for B14

Each binder was assayed against T1, FcγRIIa R (extracellular domain, His …) (assay: SPR (Biacore), relative binding, control GpH7-A5/GpH7-B3/GpL16-k0 = 100).
Experimental: (§1) Analysis of interaction between objective antibody and the FcγR was carried out using Biacore T100 (GE Healthcare). HBS-EP+ (GE Healthcare) was used as the running buffer, and the measurement temperature was set to 25° C. Chips produced by immobilizing the antigen peptide by the amine coupling method to a Series S Sencor Chip CM5 (GE Healthcare), or alternatively, chips produced by allowing preliminarily biotinylated antigen peptides to interact with and immobilize onto a Series S Sensor Chip SA (certified) (GE Healthcare) were used. Antibodies of interest were captured onto an antigen peptide-immobilized chip, and allowed to interact to each FcγR diluted with running buffer. To regenerate and repeatedly use the chip, the antibodies captured on the chip were washed off by reacting 10 mM glycine-HCl, pH 1.5.

| He/Con_2aR | Binder |
| --- | --- |
| 111 % of control | B1 |
| 125 % of control | B2 |
| 127 % of control | B3 |
| 148 % of control | B4 |
| 105 % of control | B5 |
| 110 % of control | B6 |
| 148 % of control | B7 |
| 114 % of control | B8 |
| 149 % of control | B9 |
| 119 % of control | B10 |
| 106 % of control | B11 |
| 138 % of control | B12 |
| 128 % of control | B13 |

Each binder was assayed against T1, FcγRIIa R (extracellular domain, His …) (assay: SPR (Biacore), relative binding, control GpH7-B3/GpL16-k0 = 100).
Experimental: as §1

| Ho/Con_2aR | Binder |
| --- | --- |
| 135 % of control | B14 |
| 112 % of control | B15 |
| 127 % of control | B16 |
| 110 % of control | B17 |
| 113 % of control | B18 |
| 101 % of control | B19 |
| 109 % of control | B20 |
| 121 % of control | B21 |
| 157 % of control | B22 |
| 102 % of control | B23 |
| 160 % of control | B24 |
| 111 % of control | B25 |
| 123 % of control | B26 |
| 137 % of control | B27 |
| 150 % of control | B28 |
| 108 % of control | B29 |
| 107 % of control | B30 |
| 116 % of control | B31 |
| 134 % of control | B32 |
| 117 % of control | B33 |
| 102 % of control | B34 |

| Ho/Con_2aR | Binder |
| --- | --- |
| 108 % of control | B35 |
| 146 % of control | B36 |
| 140 % of control | B37 |
| 124 % of control | B38 |
| 123 % of control | B39 |
| 156 % of control | B40 |
| 113 % of control | B41 |
| 142 % of control | B42 |
| 148 % of control | B43 |
| 113 % of control | B44 |
| 107 % of control | B45 |
| 109 % of control | B46 |
| 158 % of control | B47 |
| 100 % of control | B48 |
| 143 % of control | B49 |
| 132 % of control | B50 |
| 141 % of control | B51 |
| 111 % of control | B52 |
| 116 % of control | B53 |
| 145 % of control | B54 |
| 123 % of control | B55 |
